Changes are numbered by the printed parent chain. Names may count otherwise.
B1: SEQ ID NO: 8: P450-BM3 parental backbone from the commercially available MCYP panel (MCYP-0343; Codexis) (protein)
chain: MTIKEMPQPKTFGELKNLPLLNTDKPVQALMKIADELGEIFKFEAPGRVTRYLSSQRLIKEACDESRFDKNLSQALKFARDFAGDGLFTSWTHEKNWKKAHNILLPSFSQQAMKGYHAMMVDIAVQLVQKWERLNADEYIEVPEDMTRLTLDTIGLCGFNYRFNSFYRDQPHPFIISMIRALDEVMNKLQRANPDDPAYDENKRQFQEDIKVMNDLVDKIIADRKASGEQSDDLLTQMLNGKDPETGEPLDDGNISYQIITFLIAGHETTSGLLSFALYFLVKNPHVLQKVAEEATRVLVDPVPSYKQVKQLKYVGMVLNEALRLWPTAPAFSLYAKEDTVLGGEYPLEKGDEVMVLIPQLHRDKTIWGDDVEEFRPERFENPSAIPQHAFKPFGNGQRACIGQQFALHEATLVLGMMLKHFDFEDHTNYELDIKETLTLKPEGFVVKAKSKKIPLGGIPSPSTEQSAKKVRKKAENAHNTPLLVLYGSNMGTAEGTARDLADIAMSKGFAPQVATLDSHAGNLPREGAVLIVTASYNGHPPDNAKQFVDWLDQASADEVKGVRYSVFGCGDKNWATTYQKVPAFIDETLAAKGAENIADRGEADASDDFEGTYEEWREHMWSDVAAYFNLDIENSEDNKSTLSLQFVDSAADMPLAKMHGAFSTNVVASKELQQPGSARSTRHLEIELPKEASYQEGDHLGVIPRNYEGIVNRVTARFGLDASQQIRLEAEEEKLAHLPLAKTVSVEELLQYVELQDPVTRTQLRAMAAKTVCPPHKVELEALLEKQAYKEQVLAKRLTMLELLEKYPACEMKFSEFIALLPSIRPRYYSISSSPRVDEKQASITVSVVSGEAWSGYGEYKGIASNYLAELQEGDTITCFISTPQSEFTLPKDPETPLIMVGPGTGVAPFRGFVQARKQLKEQGQSLGEAHLYFGCRSPHEDYLYQEELENAQSEGIITLHTAFSRMPNQPKTYVQHVMEQDGKKLIELLDQGAHFYICGDGSQMAPAVEATLMKSYADVHQVSEADARLWLQQLEEKGRYAKDVWAG
modifications: P450_BM3
B2: Variant 9: P450-BM3 variant of SEQ ID NO: 8: Y52F; D232H; E349K; E619D; D722S; R762H (protein)
chain: B1 chain with Y52F, D232H, E349K, E619D, D722S, R762H
modifications: P450_BM3
notes: D232H; E349K; E619D; D722S; R762H
B3: Variant 6: P450-BM3 variant of SEQ ID NO: 2: V51S; D118R; L219Y; K236H; P351T; S353T; N579T; T582A; E624D; A632S; D727S; Q931K (protein)
chain: MLMKQASAIPQPKTYGPLKNLPHLEKEQLSQSLWRIADELGPIFRFDFPGSSSVFVSGHNLVAEVCDEERFDKSIEGALEKVRAFSGDGLATSWTHEPNWRKAHNILMPTFSQRAMKRYHEKMVDIATQLIQKWSRLNPNEEIDVADDMTRLTLDTIGLCGFNYRFNSFYRDQPHPFITSMVRALDEAMNKLQRANPDDPAYDENKRQFQEDIKVMNDYVDSIIAERRANGDQDEHDLLARMLNVEDPETGEKLDDENIRFQIITFLIAGHETTSGLLSFAIYCLLTHPEKLKKAQEEADRVLTDDTPEYKQIQQLKYIRMVLNETLRLYPTAPAFSLYAKEDTVLGGEYTITKGQPVTVLIPKLHRDQNAWGPDAEDFRPERFEDPSSIPHHAYKPFGNGQRACIGMQFALQEATMVLGLVLKHFELINHTGYELKIKEALTIKPDDFKITVKPRKTAAINVQRKEQAEQSAKKVRKKAENAHNTPLLVLYGSNMGTAEGTARDLADIAMSKGFAPQVATLDSHAGNLPREGAVLIVTASYNGHPPDNAKQFVDWLDQASADEVKGVRYSVFGCGDKTWAATYQKVPAFIDETLAAKGAENIADRGEADASDDFEGTYEEWRDHMWSDVASYFNLDIENSEDNKSTLSLQFVDSAADMPLAKMHGAFSTNVVASKELQQPGSARSTRHLEIELPKEASYQEGDHLGVIPRNYEGIVNRVTARFGLSASQQIRLEAEEEKLAHLPLAKTVSVEELLQYVELQDPVTRTQLRAMAAKTVCPPHKVELEALLEKQAYKEQVLAKRLTMLELLEKYPACEMKFSEFIALLPSIRPRYYSISSSPRVDEKQASITVSVVSGEAWSGYGEYKGIASNYLAELQEGDTITCFISTPQSEFTLPKDPETPLIMVGPGTGVAPFRGFVQARKQLKEQGKSLGEAHLYFGCRSPHEDYLYQEELENAQSEGIITLHTAFSRMPNQPKTYVQHVMEQDGKKLIELLDQGAHFYICGDGSQMAPAVEATLMKSYADVHQVSEADARLWLQQLEEKGRYAKDVWAG
modifications: P450_BM3
notes: D118R; L219Y; K236H; P351T; S353T; N579T; T582A; E624D; A632S; D727S; Q931K
B4: Variant 7: P450-BM3 variant of SEQ ID NO: 2: V51S; D118R; T179V; L219Y; P351T; N579T; T582A; E624D; D727S (protein)
chain: B3 chain with T179V, H236K, T353S, S632A, K931Q
modifications: P450_BM3
notes: D118R; T179V; L219Y; P351T; N579T; T582A; E624D; D727S
B5: Variant 8: P450-BM3 variant of SEQ ID NO: 2: D118R; L219Y; K236H; S353T; N579T; T582A; E624D; D727S (protein)
chain: B3 chain with S51V, T351P, S632A, K931Q
modifications: P450_BM3
notes: L219Y; K236H; S353T; N579T; T582A; E624D; D727S

Tests used:
Assay type in all cases: biochemical
[1] = Validation of generalist properties: oxidation of diclofenac by lyophilized P450-BM3 variant, UPLC-MS; conditions: [Diclofenac] = 1 mM; for TON: TON = [substrate]*% conversion/[P450]; for FIOPC (A05): fold improvement over parent MCYP-1.2-A05
Procedure: (§1) For the production of lyophilized protein powders, LB agar plates supplemented with chloramphenicol (30 μg/mL) were streaked with E. coli containing a desired B. megaterium P450-BM3 variant in an IPTG-inducible vector. The plates were grown at 37° C. for 16 hrs before single clones were selected to inoculate a 15 mL Falcon™ tube (Fisher) containing TB media (3 mL) supplemented with chloramphenicol (30 μg/mL). The tube was shaken at 200 rpm, 30° C., and 85% humidity for 20-24 h to grow the cultures to saturation. Then, 2.5 mL of the overnight culture was used to inoculate sterile 1 L flasks containing TB medium (250 mL) supplemented with chloramphenicol (30 μg/mL), trace element solution (as described above), and 0.05 g/L ammonium iron (III) citrate. After being shaken at 250 rpm, 30° C., and 85% humidity to an OD600 of 0.8-1.2, P450 expression was induced by addition of IPTG (500 uM) and the heme precursor 5-aminolevulinic acid (5-ALA) to a final concentration of 500 uM. The cultures were grown for additional 20-24 hours and centrifuged in pre-weighed 250 mL centrifuge bottles for 20 minutes at 4000 rpm, 4° C. The supernatants were discarded, and the centrifuge bottles containing cell pellets were weighed. The pellets were resuspended in 50 mM potassium phosphate buffer with 2 mM DTT, pH 8.0 (5 mL of buffer per gram of cell pellet). The cells were lysed using a microfluidizer homogenizer, and the suspensions of cells and lysate were collected in sterile 50 mL centrifuge tubes. The samples were centrifuged for 30 minutes at 10,000 rpm, 4° C. The clarified lysate was collected into a plastic petri plate and frozen at −80° C. prior to lyophilization. The enzyme-containing lysates were lyophilized using standard methods known in the art.
(§2) Enzyme stocks (˜12 μM) were prepared by dissolving ˜20 mg of each enzyme in 100 mM potassium phosphate buffer, pH 8.0 (1 mL). The concentration of each enzyme stock solution was determined by the UV-visible absorption spectroscopy (after centrifugation to remove particulates) and diluted to standardize at 12 μM heme protein. Substrate solutions were prepared by dissolving each substrate in DMSO to reach a final concentration of 20 mM or 40 mM. Reaction mix (235 μL) followed by enzyme solution (50 μL) was added to the plates. The substrate stock solution was added to the enzyme solutions (15 μL at the two different concentrations). Each reaction contained 100 mM potassium phosphate, 1.0 mM NADP+, 25 mM glucose, 0.5 mg/mL glucose dehydrogenase, 5% DMSO and substrate at 1 or 2 mM. Loratadine, imatinib, and gefitinib (See, FIG. 1) were selected as substrates in addition to diclofenac to validate improved BM3 variants. The reactions were shaken at 450 rpm at 30° C. over 24 hours. All reactions were diluted with acetonitrile to a final concentration of 0.5 mM substrate. The plates were then centrifuged at 3,000 g for 1 hour at 20° C. The supernatant was diluted 1:1 with acetonitrile, filtered using a 0.4 micron filter, and analyzed by UPLC-MS.
(§3) For UPLC-MS analysis, the quenched and filtered reactions were transferred to 96-well HTP plates for analysis by UPLC on a Waters Acquity H-class system equipped with an autosampler. 1 uL of quenched sample was injected onto an Acquity UPLC HSS T3 column, 100 Å, (1.8 um; 2.1×100 mm). The column was eluted at a constant flow rate of 0.6 mL/min; conditions with solvent A (0.05% trifluoroacetic acid v/v, in H2O) and solvent B (0.05% trifluoroacetic acid v/v, in acetonitrile) used to elute the products of the reaction were: 0-2 min, A/B 95:5; 2-2.9 min, A/B 5:95; 2.9-3 min, A/B 95:5; 3-3.5 min, A/B 95:5. Column eluent was monitored by PDA (200-600 nm) prior to MS analysis in positive ESI mode (desolvation temperature 350° C., 3.25 kV spray voltage, cone voltage 25V). The column eluent was diverted to waste for the first 0.7 minutes of the run. For the remainder of the LC run, both MS (m/z 95-600 scan range) and MS/MS were collected. […]

[2] = Validation of generalist properties: oxidation of gefitinib by lyophilized P450-BM3 variant, UPLC-MS; conditions: [Gefitinib] = 1 mM; for TON: TON = [substrate]*% conversion/[P450]; for FIOPC (A05): fold improvement over parent MCYP-1.2-A05
Procedure: as §1, §2, §3

[3] = Validation of generalist properties: oxidation of imatinib by lyophilized P450-BM3 variant, UPLC-MS; conditions: [Imatinib] = 1 mM; for TON: TON = [substrate]*% conversion/[P450]; for FIOPC (A05): fold improvement over parent MCYP-1.2-A05
Procedure: as §1, §2, §3

[4] = Validation of generalist properties: oxidation of loratadine by lyophilized P450-BM3 variant, UPLC-MS; conditions: [Loratadine] = 1 mM; for TON: TON = [substrate]*% conversion/[P450]; for FIOPC (A05): fold improvement over parent MCYP-1.2-A05
Procedure: as §1, §2, §3

[5] = fold improvement over parent MCYP-P1.2-B02

| Molecule | % Conv. [1] | TON [1] | % Conv. [2] | TON [2] | % Conv. [3] | TON [3] | % Conv. [4] | TON [4] | FIOPC (B02) [1, 5] | FIOPC (B02) [2, 5] | FIOPC (B02) [3, 5] | FIOPC (B02) [4, 5] | FIOPC (A05) [1] | FIOPC (A05) [2] | FIOPC (A05) [3] | FIOPC (A05) [4] |
| --- | --- | --- | --- | --- | --- | --- | --- | --- | --- | --- | --- | --- | --- | --- | --- | --- |
| B1 | ++ (5.01-10.00) | ‡‡ (1001-5000) | + (0-5.00) | ‡ (0-1000) | ++++ (15.01-20.00) | ‡‡‡‡ (10000-50000) | ++ (5.01-10.00) | ‡‡ (1001-5000) |  |  |  |  |  |  |  |  |
| B2 | ++++ (15.01-20.00) | ‡‡‡ (5001-10000) | + (0-5.00) | ‡ (0-1000) | ++++ (15.01-20.00) | ‡‡‡‡ (10000-50000) | ++ (5.01-10.00) | ‡‡ (1001-5000) | * (0.0-3.0) | * (0.0-3.0) | * (0.0-3.0) | * (0.0-3.0) |  |  |  |  |
| B3 | ++ (5.01-10.00) | ‡‡ (1001-5000) | + (0-5.00) | ‡ (0-1000) | ++++ (15.01-20.00) | ‡‡‡‡ (10000-50000) | ++ (5.01-10.00) | ‡‡ (1001-5000) |  |  |  |  | **** (10.01-15.00) | * (0.0-3.0) | * (0.0-3.0) | **** (10.01-15.00) |
| B4 | + (0-5.00) | ‡‡ (1001-5000) | + (0-5.00) | ‡ (0-1000) | ++ (5.01-10.00) | ‡‡‡‡ (10000-50000) | ++ (5.01-10.00) | ‡‡ (1001-5000) |  |  |  |  | **** (10.01-15.00) | * (0.0-3.0) | ** (3.01-5.0) | **** (10.01-15.00) |
| B5 | + (0-5.00) | ‡‡ (1001-5000) | + (0-5.00) | ‡ (0-1000) | ++++ (15.01-20.00) | ‡‡‡ (5001-10000) | ++ (5.01-10.00) | ‡‡ (1001-5000) |  |  |  |  | **** (10.01-15.00) | * (0.0-3.0) | * (0.0-3.0) | **** (10.01-15.00) |

— US10704030B2, “P450-BM3 variants with improved activity” (Codexis, Inc., priority 2015, dated 2020)
